# B1: Histone deacetylase 3 (Homo sapiens), O15379 (parent)
# chain: MAKTVAYFYDPDVGNFHYGAGHPMKPHRLALTHSLVLHYGLYKKMIVFKPYQASQHDMCRFHSEDYIDFLQRVSPTNMQGFTKSLNAFNVGDDCPVFPGLFEFCSRYTGASLQGATQLNNKICDIAINWAGGLHHAKKFEASGFCYVNDIVIGILELLKYHPRVLYIDIDIHHGDGVQEAFYLTDRVMTVSFHKYGNYFFPGTGDMYEVGAESGRYYCLNVPLRDGIDDQSYKHLFQPVINQVVDFYQPTCIVLQCGADSLGCDRLGCFNLSIRGHGECVEYVKSFNIPLLVLGGGGYTVRNVARCWTYETSLLVEEAISEELPYSEYFEYFAPDFTLHPDVSTRIENQNSRQYLDQIRQTIFENLKMLNHAPSVQIHDVPADLLTYDRTDEADAEERGPEENYSRPEAPNEFYDGDHDNDKESDVEI
# Variants of: B1
# Settings: with ncor2_human NCOR2, Q9Y618
# Sequence of ncor2_human NCOR2, Q9Y618 (Q9Y618 whole entry): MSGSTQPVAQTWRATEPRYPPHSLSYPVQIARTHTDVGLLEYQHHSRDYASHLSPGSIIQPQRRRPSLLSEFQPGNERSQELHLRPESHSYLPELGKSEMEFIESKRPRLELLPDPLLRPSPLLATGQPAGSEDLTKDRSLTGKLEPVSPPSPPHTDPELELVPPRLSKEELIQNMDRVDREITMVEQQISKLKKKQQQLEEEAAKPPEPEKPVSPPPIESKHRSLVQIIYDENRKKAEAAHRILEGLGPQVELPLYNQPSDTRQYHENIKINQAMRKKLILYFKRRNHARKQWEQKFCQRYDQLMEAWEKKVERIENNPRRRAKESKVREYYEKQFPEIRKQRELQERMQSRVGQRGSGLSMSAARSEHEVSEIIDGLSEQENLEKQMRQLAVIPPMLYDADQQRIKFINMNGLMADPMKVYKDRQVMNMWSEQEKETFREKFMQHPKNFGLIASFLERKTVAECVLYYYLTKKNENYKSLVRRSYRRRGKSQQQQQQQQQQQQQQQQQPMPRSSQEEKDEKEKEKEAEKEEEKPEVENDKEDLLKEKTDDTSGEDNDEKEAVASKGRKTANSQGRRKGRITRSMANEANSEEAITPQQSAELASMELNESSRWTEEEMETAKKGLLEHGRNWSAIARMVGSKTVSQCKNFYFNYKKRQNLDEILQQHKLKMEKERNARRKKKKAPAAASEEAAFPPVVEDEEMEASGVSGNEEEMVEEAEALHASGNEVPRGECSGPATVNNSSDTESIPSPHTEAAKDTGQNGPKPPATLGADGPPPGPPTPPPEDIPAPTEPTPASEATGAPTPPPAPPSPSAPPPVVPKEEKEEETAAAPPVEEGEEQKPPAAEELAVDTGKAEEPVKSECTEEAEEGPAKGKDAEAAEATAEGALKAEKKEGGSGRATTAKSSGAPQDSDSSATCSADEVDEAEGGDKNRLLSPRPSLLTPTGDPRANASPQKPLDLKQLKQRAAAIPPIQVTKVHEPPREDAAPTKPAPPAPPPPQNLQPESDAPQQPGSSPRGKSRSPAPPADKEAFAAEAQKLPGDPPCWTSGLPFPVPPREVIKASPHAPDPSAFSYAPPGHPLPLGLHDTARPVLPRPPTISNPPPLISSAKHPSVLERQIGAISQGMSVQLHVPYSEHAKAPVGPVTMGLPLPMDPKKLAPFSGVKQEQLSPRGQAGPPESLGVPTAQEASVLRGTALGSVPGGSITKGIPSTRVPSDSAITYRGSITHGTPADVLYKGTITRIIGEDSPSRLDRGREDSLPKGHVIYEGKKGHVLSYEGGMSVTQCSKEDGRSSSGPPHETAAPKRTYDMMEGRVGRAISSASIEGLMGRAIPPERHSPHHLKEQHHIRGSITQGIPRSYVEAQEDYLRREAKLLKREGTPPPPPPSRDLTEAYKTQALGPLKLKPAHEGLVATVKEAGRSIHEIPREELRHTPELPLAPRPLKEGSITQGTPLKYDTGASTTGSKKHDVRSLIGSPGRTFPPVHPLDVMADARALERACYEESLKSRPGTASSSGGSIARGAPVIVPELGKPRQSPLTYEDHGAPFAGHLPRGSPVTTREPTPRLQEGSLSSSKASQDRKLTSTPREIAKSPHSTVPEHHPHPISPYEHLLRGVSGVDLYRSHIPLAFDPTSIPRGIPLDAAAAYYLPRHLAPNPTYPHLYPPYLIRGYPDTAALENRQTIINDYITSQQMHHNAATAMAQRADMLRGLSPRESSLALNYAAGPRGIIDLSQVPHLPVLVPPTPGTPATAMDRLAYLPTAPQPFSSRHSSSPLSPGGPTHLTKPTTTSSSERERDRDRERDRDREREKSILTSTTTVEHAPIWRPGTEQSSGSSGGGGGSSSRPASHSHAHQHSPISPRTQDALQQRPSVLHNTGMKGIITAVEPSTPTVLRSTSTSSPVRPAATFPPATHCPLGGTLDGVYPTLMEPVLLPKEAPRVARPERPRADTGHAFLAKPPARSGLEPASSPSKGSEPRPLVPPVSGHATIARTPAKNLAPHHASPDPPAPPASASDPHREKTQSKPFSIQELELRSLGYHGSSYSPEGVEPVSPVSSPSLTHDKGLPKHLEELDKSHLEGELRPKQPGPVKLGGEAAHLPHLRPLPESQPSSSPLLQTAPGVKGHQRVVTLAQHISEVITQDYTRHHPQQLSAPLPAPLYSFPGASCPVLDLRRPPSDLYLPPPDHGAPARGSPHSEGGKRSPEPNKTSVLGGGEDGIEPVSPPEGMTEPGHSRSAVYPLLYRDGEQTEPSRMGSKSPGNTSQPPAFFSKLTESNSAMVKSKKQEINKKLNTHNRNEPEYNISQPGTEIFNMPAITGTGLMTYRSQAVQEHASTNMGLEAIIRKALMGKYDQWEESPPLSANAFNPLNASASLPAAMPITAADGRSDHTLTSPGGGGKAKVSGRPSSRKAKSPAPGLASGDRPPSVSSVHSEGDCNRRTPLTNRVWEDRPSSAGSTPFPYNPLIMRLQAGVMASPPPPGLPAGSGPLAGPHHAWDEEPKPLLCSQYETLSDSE
row,effect of a mutation on the interaction,Variant
1,disrupting interaction,R265P
2,disrupting interaction,H17C;G21A;K25I;R265P;L266M
3,disrupting interaction,R265P;L266M
4,disrupting interaction,H17C;G21A;K25I

# Variants of: B1
# Settings: with ncor2_human NCOR2, Q9Y618
# Remark: another data set of the same source
row,effect of a mutation on the interaction,Variant
1,disrupting interaction,H17C;G21A;K25I;R265P;L266M

# Reference: IntAct's records for PubMed 22230954
